{"source": "ChEMBL document CHEMBL3392998", "key": {"[1]": {"test_system": "Human immunodeficiency virus type 1 protease (Human immunodeficiency virus 1), Q72874 [L10I,L63P,A71V,G73S,I84V,L90M]", "conditions": "1 to 180 uM"}, "[2]": {"biological_target": "Protease (Human immunodeficiency virus 1) (UniProt Q9YQ12)", "conditions": "1 to 180 uM"}, "[3]": {"test_system": "O=C1c2cccc([N+](=O)[O-])c2C(=O)N1c1ccc2[nH]c(=S)sc2c1", "conditions": "Human immunodeficiency virus 1; 150 uM"}, "[4]": {"test_system": "O=C1c2cccc([N+](=O)[O-])c2C(=O)N1c1ccc2[nH]c(=S)sc2c1", "conditions": "Human immunodeficiency virus 1; 100 uM"}, "[5]": {"test_system": "O=C1c2cccc([N+](=O)[O-])c2C(=O)N1c1ccc2[nH]c(=S)sc2c1", "conditions": "Human immunodeficiency virus 1; 100 uM", "remark": "listed apart in the source"}, "[6]": {"test_system": "O=C1c2cccc([N+](=O)[O-])c2C(=O)N1c1ccc2[nH]c(=S)sc2c1", "conditions": "Human immunodeficiency virus 1; 150 uM", "remark": "listed apart in the source"}, "[7]": {"test_system": "O=C1c2cccc([N+](=O)[O-])c2C(=O)N1c1ccc2[nH]c(=S)sc2c1", "conditions": "Human immunodeficiency virus 1; 100 uM", "remark": "listed apart in the source"}, "[8]": {"test_system": "O=C1c2cccc([N+](=O)[O-])c2C(=O)N1c1ccc2[nH]c(=S)sc2c1", "conditions": "Human immunodeficiency virus 1; 150 uM", "remark": "listed apart in the source"}, "[9]": {"test_system": "O=C1c2cccc([N+](=O)[O-])c2C(=O)N1c1ccc2[nH]c(=S)sc2c1", "conditions": "Human immunodeficiency virus 1; 150 uM", "remark": "listed apart in the source"}, "[10]": {"test_system": "O=C1c2cccc([N+](=O)[O-])c2C(=O)N1c1ccc2[nH]c(=S)sc2c1", "conditions": "Human immunodeficiency virus 1; 100 uM", "remark": "listed apart in the source"}}, "note": "The source made the active and inactive calls. No cut-off for these calls is given here."}
{"compound": "O=C1c2cccc([N+](=O)[O-])c2C(=O)N1c1ccc2[nH]c(=S)sc2c1", "values": [{"measurement": "inhibition", "setting": "[1]", "result": "inactive"}, {"measurement": "inhibition", "setting": "[2]", "result": "inactive"}]}
{"compound": "Human immunodeficiency virus type 1 protease (Human immunodeficiency virus 1), Q72874 L10I,L63P,A71V,G73S,I84V,L90M", "values": [{"measurement": "Km", "setting": "[3]", "result": 359, "unit": "µM"}, {"measurement": "Vmax", "setting": "[4]", "result": 30, "unit": "nM/s"}, {"measurement": "Km", "setting": "[5]", "result": 246, "unit": "µM"}, {"measurement": "Vmax", "setting": "[6]", "result": 30, "unit": "nM/s"}]}
{"compound": "Protease (Human immunodeficiency virus 1), Q9YQ12", "values": [{"measurement": "Km", "setting": "[7]", "result": 144, "unit": "µM"}, {"measurement": "Km", "setting": "[8]", "result": 184, "unit": "µM"}, {"measurement": "Vmax", "setting": "[9]", "result": 34, "unit": "nM/s"}, {"measurement": "Vmax", "setting": "[10]", "result": 35, "unit": "nM/s"}]}
